Data: PMC10241913 (Nature Communications, 2023)
Blank lines part the entries; values can stand above or below the binder they belong to.

Tests used:
Conditions in all cases: both partners purified
p97 wild type (1-806) = biological target: T1, p97 wild type (1-806) (UniProt P55072 1-806); assay: fluorescence polarisation; displacement titration: UBXD1 incubated with 0.1 µM 5,6-FAM-p97-C10 peptide to 50% saturation, concentration of p97 successively increased; competitive binding model; 50 mM NaKPi buffer, pH 7.5, 25 °C
T1 construct: p97/VCP, residues 1-806; also called p97-wt; p97-fl; source: E. coli BL21 DE3 (T1r), purified (Ni-NTA, anion exchange)
T1 sequence (P55072 whole entry, the tested form may be a part): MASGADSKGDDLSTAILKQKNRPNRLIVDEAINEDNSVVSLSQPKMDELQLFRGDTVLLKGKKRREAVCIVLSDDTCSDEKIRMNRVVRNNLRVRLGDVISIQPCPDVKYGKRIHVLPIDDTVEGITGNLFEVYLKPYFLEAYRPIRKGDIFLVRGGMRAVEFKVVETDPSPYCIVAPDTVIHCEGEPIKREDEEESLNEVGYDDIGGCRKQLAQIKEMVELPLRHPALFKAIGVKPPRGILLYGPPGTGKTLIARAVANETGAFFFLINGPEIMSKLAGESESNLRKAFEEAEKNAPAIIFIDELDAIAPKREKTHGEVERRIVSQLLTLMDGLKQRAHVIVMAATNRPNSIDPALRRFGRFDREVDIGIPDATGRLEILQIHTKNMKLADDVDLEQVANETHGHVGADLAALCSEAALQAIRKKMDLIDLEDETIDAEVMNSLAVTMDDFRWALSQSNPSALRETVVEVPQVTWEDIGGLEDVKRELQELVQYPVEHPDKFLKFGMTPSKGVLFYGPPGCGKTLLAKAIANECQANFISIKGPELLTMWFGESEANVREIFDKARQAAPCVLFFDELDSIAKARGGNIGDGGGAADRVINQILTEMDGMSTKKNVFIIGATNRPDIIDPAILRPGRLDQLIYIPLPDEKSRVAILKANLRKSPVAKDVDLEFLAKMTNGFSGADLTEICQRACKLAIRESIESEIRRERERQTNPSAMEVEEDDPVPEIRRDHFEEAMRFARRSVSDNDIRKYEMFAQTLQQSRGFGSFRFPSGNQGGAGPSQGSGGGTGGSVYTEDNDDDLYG

p97-wt (1–806) = biological target: T2, p97-wt (1–806) (UniProt P55072 1-806); assay: fluorescence polarisation; fluorescence anisotropy; Atto594-labeled UBXD1 proteins, p97 constructs titrated; 50 mM NaKPi pH 7.5, 25 °C; all fitted with stoichiometry n = 1
T2 construct: p97/VCP, residues 1-806; also called VCP; p97-fl; source: E. coli BL21 DE3 (T1r), purified (Ni-NTA, anion exchange)
T2 sequence (P55072 whole entry, the tested form may be a part): as above

p97-ΔC (1–766) = biological target: T3, p97-ΔC (1–766) (UniProt P55072 1-766); assay: as above
T3 construct: p97/VCP, residues 1-766; source: E. coli BL21 DE3 (T1r), purified (Ni-NTA, anion exchange)
T3 sequence (P55072 1-766, stated change not applied): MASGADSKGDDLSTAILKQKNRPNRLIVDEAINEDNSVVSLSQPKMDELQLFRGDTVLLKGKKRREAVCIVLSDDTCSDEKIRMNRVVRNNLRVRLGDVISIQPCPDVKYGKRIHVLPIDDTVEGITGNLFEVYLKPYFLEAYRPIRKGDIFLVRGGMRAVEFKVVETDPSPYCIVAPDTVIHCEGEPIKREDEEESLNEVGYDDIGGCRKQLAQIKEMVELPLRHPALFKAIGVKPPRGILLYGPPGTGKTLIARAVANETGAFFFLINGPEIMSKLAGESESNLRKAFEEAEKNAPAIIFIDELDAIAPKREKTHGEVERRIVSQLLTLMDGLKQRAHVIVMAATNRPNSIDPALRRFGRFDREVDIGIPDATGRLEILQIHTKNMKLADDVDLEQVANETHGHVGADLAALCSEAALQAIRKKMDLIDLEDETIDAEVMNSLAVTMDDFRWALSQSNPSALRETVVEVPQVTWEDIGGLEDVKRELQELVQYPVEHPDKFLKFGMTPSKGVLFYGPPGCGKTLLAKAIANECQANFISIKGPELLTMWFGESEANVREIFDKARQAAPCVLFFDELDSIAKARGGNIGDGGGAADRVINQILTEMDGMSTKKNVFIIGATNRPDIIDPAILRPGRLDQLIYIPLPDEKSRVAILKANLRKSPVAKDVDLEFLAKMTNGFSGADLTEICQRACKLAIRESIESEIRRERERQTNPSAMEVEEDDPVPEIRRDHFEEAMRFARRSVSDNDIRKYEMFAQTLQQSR

p97-ΔD2-C (1–480) = biological target: T4, p97-ΔD2-C (1–480) (UniProt P55072 1-480); assay: as above
T4 construct: p97/VCP, residues 1-480; The pull-down methods give the concentration of the p97 variant as hexamer; also called ND1L; source: E. coli BL21 DE3 (T1r), purified (Ni-NTA, anion exchange)
T4 sequence (P55072 1-480, stated change not applied): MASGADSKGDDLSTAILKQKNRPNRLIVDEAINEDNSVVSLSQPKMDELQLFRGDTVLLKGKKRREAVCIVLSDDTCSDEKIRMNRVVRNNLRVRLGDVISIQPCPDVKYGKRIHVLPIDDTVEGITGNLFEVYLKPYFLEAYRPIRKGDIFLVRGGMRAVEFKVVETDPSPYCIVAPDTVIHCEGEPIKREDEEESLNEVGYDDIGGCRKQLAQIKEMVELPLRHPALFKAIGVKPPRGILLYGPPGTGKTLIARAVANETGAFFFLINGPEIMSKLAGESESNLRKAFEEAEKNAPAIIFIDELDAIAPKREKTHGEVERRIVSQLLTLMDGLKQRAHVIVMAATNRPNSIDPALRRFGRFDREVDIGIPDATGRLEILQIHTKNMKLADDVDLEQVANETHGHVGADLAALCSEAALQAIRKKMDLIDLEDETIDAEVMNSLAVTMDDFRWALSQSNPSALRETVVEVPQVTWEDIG

Ubiquitin-GST = biological target: T5, Ubiquitin-GST (UniProt P0CG48 1-76); assay: pull-down; screening pulldown: 25 µM Ubiquitin-GST, 1 µM p97 (hexamer) and UBXD1 variant with GSH beads, 30 min, 4 °C, IP buffer; Coomassie stain
T5 construct: ubiquitin fused at its C-terminus to GST; also called Ub-GST; source: E. coli BL21 DE3 (T1r), purified; not shown: GST, C-terminal, kept

[1] = biological target: T6, ubiquitin-GST fusion protein (Ub-GST) (UniProt P0CG48 1-76); assay: pull-down; screen: 25 μM ubiquitin-GST, 1 μM p97 (hexamer) and equal amounts of UBXD1 variant (released from GSH beads by PreScission) with GSH beads, 30 min, 4 °C, IP buffer
T6 construct: source: E. coli BL21 DE3 (T1r), purified

Kd (p97 wild type (1-806)): 1100 ± 100 nM
B1: UBXD1-wt (1-441) (natural protein, human, UniProt Q9BZV1 1-441, looked up)
chain: MKKFFQEFKADIKFKSAGPGQKLKESVGEKAHKEKPNQPAPRPPRQGPTNEAQMAAAAALARLEQKQSRAWGPTSQDTIRNQVRKELQAEATVSGSPEAPGTNVVSEPREEGSAHLAVPGVYFTCPLTGATLRKDQRDACIKEAILLHFSTDPVAASIMKIYTFNKDQDRVKLGVDTIAKYLDNIHLHPEEEKYRKIKLQNKVFQERINCLEGTHEFFEAIGFQKVLLPAQDQEDPEEFYVLSETTLAQPQSLERHKEQLLAAEPVRAKLDRQRRVFQPSPLASQFELPGDFFNLTAEEIKREQRLRSEAVERLSVLRTKAMREKEEQRGLRKYNYTLLRVRLPDGCLLQGTFYARERLGAVYGFVREALQSDWLPFELLASGGQKLSEDENLALNECGLVPSALLTFSWDMAVLEDIKAAGAEPDSILKPELLSAIEKLL
notes: also called UBXD1-fl; UBXN6; not shown: GST, N-terminal, cleaved

Kd (p97-wt (1–806)): 1.64 µM
Kd (p97-ΔC (1–766)): 11.9 ± 0.2 µM
B2: UBXD1-wt (1–441), Atto594-labeled for fluorescence anisotropy with p97 (natural protein, human, UniProt Q9BZV1 1-441, looked up)
chain: MKKFFQEFKADIKFKSAGPGQKLKESVGEKAHKEKPNQPAPRPPRQGPTNEAQMAAAAALARLEQKQSRAWGPTSQDTIRNQVRKELQAEATVSGSPEAPGTNVVSEPREEGSAHLAVPGVYFTCPLTGATLRKDQRDACIKEAILLHFSTDPVAASIMKIYTFNKDQDRVKLGVDTIAKYLDNIHLHPEEEKYRKIKLQNKVFQERINCLEGTHEFFEAIGFQKVLLPAQDQEDPEEFYVLSETTLAQPQSLERHKEQLLAAEPVRAKLDRQRRVFQPSPLASQFELPGDFFNLTAEEIKREQRLRSEAVERLSVLRTKAMREKEEQRGLRKYNYTLLRVRLPDGCLLQGTFYARERLGAVYGFVREALQSDWLPFELLASGGQKLSEDENLALNECGLVPSALLTFSWDMAVLEDIKAAGAEPDSILKPELLSAIEKLL
modifications: Atto594 (NHS ester, ratio 1:1.2)
notes: not shown: GST, N-terminal, cleaved

Kd (p97-ΔD2-C (1–480)): 466 ± 9 µM
Kd (p97-ΔC (1–766)): 87 ± 1 µM
B3: UBXD1-VIMx (1–441, DI11/12AA, RL62/63AA) (natural protein, human, UniProt Q9BZV1 1-441, looked up)
chain: MKKFFQEFKAAAKFKSAGPGQKLKESVGEKAHKEKPNQPAPRPPRQGPTNEAQMAAAAALAAAEQKQSRAWGPTSQDTIRNQVRKELQAEATVSGSPEAPGTNVVSEPREEGSAHLAVPGVYFTCPLTGATLRKDQRDACIKEAILLHFSTDPVAASIMKIYTFNKDQDRVKLGVDTIAKYLDNIHLHPEEEKYRKIKLQNKVFQERINCLEGTHEFFEAIGFQKVLLPAQDQEDPEEFYVLSETTLAQPQSLERHKEQLLAAEPVRAKLDRQRRVFQPSPLASQFELPGDFFNLTAEEIKREQRLRSEAVERLSVLRTKAMREKEEQRGLRKYNYTLLRVRLPDGCLLQGTFYARERLGAVYGFVREALQSDWLPFELLASGGQKLSEDENLALNECGLVPSALLTFSWDMAVLEDIKAAGAEPDSILKPELLSAIEKLL
modifications: Atto594 (NHS ester; the UBXD1 proteins were labeled for anisotropy)
notes: also called UBXD1-VIMx mutant; not shown: GST, N-terminal, cleaved

binding result (Ubiquitin-GST): binds
B4: UBXD1-His E368A/D373A (natural protein, human, UniProt Q9BZV1 1-441, looked up)
chain: MKKFFQEFKADIKFKSAGPGQKLKESVGEKAHKEKPNQPAPRPPRQGPTNEAQMAAAAALARLEQKQSRAWGPTSQDTIRNQVRKELQAEATVSGSPEAPGTNVVSEPREEGSAHLAVPGVYFTCPLTGATLRKDQRDACIKEAILLHFSTDPVAASIMKIYTFNKDQDRVKLGVDTIAKYLDNIHLHPEEEKYRKIKLQNKVFQERINCLEGTHEFFEAIGFQKVLLPAQDQEDPEEFYVLSETTLAQPQSLERHKEQLLAAEPVRAKLDRQRRVFQPSPLASQFELPGDFFNLTAEEIKREQRLRSEAVERLSVLRTKAMREKEEQRGLRKYNYTLLRVRLPDGCLLQGTFYARERLGAVYGFVRAALQSAWLPFELLASGGQKLSEDENLALNECGLVPSALLTFSWDMAVLEDIKAAGAEPDSILKPELLSAIEKLL
notes: the mutant's name is printed in four ways; not shown: GST, N-terminal, cleaved

binding result [1]: binds
B5: UBXD1 R274A (full length, recombinant) (natural protein, human, UniProt Q9BZV1 1-441, looked up)
chain: MKKFFQEFKADIKFKSAGPGQKLKESVGEKAHKEKPNQPAPRPPRQGPTNEAQMAAAAALARLEQKQSRAWGPTSQDTIRNQVRKELQAEATVSGSPEAPGTNVVSEPREEGSAHLAVPGVYFTCPLTGATLRKDQRDACIKEAILLHFSTDPVAASIMKIYTFNKDQDRVKLGVDTIAKYLDNIHLHPEEEKYRKIKLQNKVFQERINCLEGTHEFFEAIGFQKVLLPAQDQEDPEEFYVLSETTLAQPQSLERHKEQLLAAEPVRAKLDRQARVFQPSPLASQFELPGDFFNLTAEEIKREQRLRSEAVERLSVLRTKAMREKEEQRGLRKYNYTLLRVRLPDGCLLQGTFYARERLGAVYGFVREALQSDWLPFELLASGGQKLSEDENLALNECGLVPSALLTFSWDMAVLEDIKAAGAEPDSILKPELLSAIEKLL
notes: UBXD1 (UBXN6), human, mutant in the context of recombinant UBXD1-fl

binding result [1]: binds
B6: UBXD1 R307A (full length, recombinant) (natural protein, human, UniProt Q9BZV1 1-441, looked up)
chain: MKKFFQEFKADIKFKSAGPGQKLKESVGEKAHKEKPNQPAPRPPRQGPTNEAQMAAAAALARLEQKQSRAWGPTSQDTIRNQVRKELQAEATVSGSPEAPGTNVVSEPREEGSAHLAVPGVYFTCPLTGATLRKDQRDACIKEAILLHFSTDPVAASIMKIYTFNKDQDRVKLGVDTIAKYLDNIHLHPEEEKYRKIKLQNKVFQERINCLEGTHEFFEAIGFQKVLLPAQDQEDPEEFYVLSETTLAQPQSLERHKEQLLAAEPVRAKLDRQRRVFQPSPLASQFELPGDFFNLTAEEIKREQRLASEAVERLSVLRTKAMREKEEQRGLRKYNYTLLRVRLPDGCLLQGTFYARERLGAVYGFVREALQSDWLPFELLASGGQKLSEDENLALNECGLVPSALLTFSWDMAVLEDIKAAGAEPDSILKPELLSAIEKLL
notes: as for B5

binding result [1]: binds
B7: UBXD1 R305A (full length, recombinant) (natural protein, human, UniProt Q9BZV1 1-441, looked up)
chain: MKKFFQEFKADIKFKSAGPGQKLKESVGEKAHKEKPNQPAPRPPRQGPTNEAQMAAAAALARLEQKQSRAWGPTSQDTIRNQVRKELQAEATVSGSPEAPGTNVVSEPREEGSAHLAVPGVYFTCPLTGATLRKDQRDACIKEAILLHFSTDPVAASIMKIYTFNKDQDRVKLGVDTIAKYLDNIHLHPEEEKYRKIKLQNKVFQERINCLEGTHEFFEAIGFQKVLLPAQDQEDPEEFYVLSETTLAQPQSLERHKEQLLAAEPVRAKLDRQRRVFQPSPLASQFELPGDFFNLTAEEIKREQALRSEAVERLSVLRTKAMREKEEQRGLRKYNYTLLRVRLPDGCLLQGTFYARERLGAVYGFVREALQSDWLPFELLASGGQKLSEDENLALNECGLVPSALLTFSWDMAVLEDIKAAGAEPDSILKPELLSAIEKLL
notes: as for B5

binding result [1]: binds
B8: UBXD1 Q278A/F286A/L288A (full length, recombinant) (natural protein, human, UniProt Q9BZV1 1-441, looked up)
chain: MKKFFQEFKADIKFKSAGPGQKLKESVGEKAHKEKPNQPAPRPPRQGPTNEAQMAAAAALARLEQKQSRAWGPTSQDTIRNQVRKELQAEATVSGSPEAPGTNVVSEPREEGSAHLAVPGVYFTCPLTGATLRKDQRDACIKEAILLHFSTDPVAASIMKIYTFNKDQDRVKLGVDTIAKYLDNIHLHPEEEKYRKIKLQNKVFQERINCLEGTHEFFEAIGFQKVLLPAQDQEDPEEFYVLSETTLAQPQSLERHKEQLLAAEPVRAKLDRQRRVFAPSPLASQAEAPGDFFNLTAEEIKREQRLRSEAVERLSVLRTKAMREKEEQRGLRKYNYTLLRVRLPDGCLLQGTFYARERLGAVYGFVREALQSDWLPFELLASGGQKLSEDENLALNECGLVPSALLTFSWDMAVLEDIKAAGAEPDSILKPELLSAIEKLL
notes: as for B5

binding result [1]: binds
B9: UBXD1 R305A/R307A/V316A (full length, recombinant) (natural protein, human, UniProt Q9BZV1 1-441, looked up)
chain: MKKFFQEFKADIKFKSAGPGQKLKESVGEKAHKEKPNQPAPRPPRQGPTNEAQMAAAAALARLEQKQSRAWGPTSQDTIRNQVRKELQAEATVSGSPEAPGTNVVSEPREEGSAHLAVPGVYFTCPLTGATLRKDQRDACIKEAILLHFSTDPVAASIMKIYTFNKDQDRVKLGVDTIAKYLDNIHLHPEEEKYRKIKLQNKVFQERINCLEGTHEFFEAIGFQKVLLPAQDQEDPEEFYVLSETTLAQPQSLERHKEQLLAAEPVRAKLDRQRRVFQPSPLASQFELPGDFFNLTAEEIKREQALASEAVERLSALRTKAMREKEEQRGLRKYNYTLLRVRLPDGCLLQGTFYARERLGAVYGFVREALQSDWLPFELLASGGQKLSEDENLALNECGLVPSALLTFSWDMAVLEDIKAAGAEPDSILKPELLSAIEKLL
notes: as for B5

Kd (p97-wt (1–806)): 131 ± 14 µM
B10: UBXD1-eUBX-C (269–441), for fluorescence anisotropy (domain or fragment, human, UniProt Q9BZV1 269-441, looked up)
chain: KLDRQRRVFQPSPLASQFELPGDFFNLTAEEIKREQRLRSEAVERLSVLRTKAMREKEEQRGLRKYNYTLLRVRLPDGCLLQGTFYARERLGAVYGFVREALQSDWLPFELLASGGQKLSEDENLALNECGLVPSALLTFSWDMAVLEDIKAAGAEPDSILKPELLSAIEKLL
modifications: Atto594 (NHS ester; the UBXD1 proteins were labeled for anisotropy)
notes: also called eUBX-C domain; not shown: GST, N-terminal, cleaved

Kd (p97-ΔD2-C (1–480)): 26 ± 2 µM
Kd (p97-ΔC (1–766)): 18.6 ± 0.7 µM
B11: UBXD1-ΔUBX-C (1–332), recombinant, for fluorescence anisotropy (domain or fragment, human, UniProt Q9BZV1 1-332, looked up)
chain: MKKFFQEFKADIKFKSAGPGQKLKESVGEKAHKEKPNQPAPRPPRQGPTNEAQMAAAAALARLEQKQSRAWGPTSQDTIRNQVRKELQAEATVSGSPEAPGTNVVSEPREEGSAHLAVPGVYFTCPLTGATLRKDQRDACIKEAILLHFSTDPVAASIMKIYTFNKDQDRVKLGVDTIAKYLDNIHLHPEEEKYRKIKLQNKVFQERINCLEGTHEFFEAIGFQKVLLPAQDQEDPEEFYVLSETTLAQPQSLERHKEQLLAAEPVRAKLDRQRRVFQPSPLASQFELPGDFFNLTAEEIKREQRLRSEAVERLSVLRTKAMREKEEQRGLR
modifications: Atto594 (NHS ester; the UBXD1 proteins were labeled for anisotropy)
notes: also called UBX deletion mutant of UBXD1; not shown: GST, N-terminal, cleaved
